Where no end group is shown, it is not given here.
B1: MBP-SD0 (super degron SD0 fused to maltose binding protein) (designed binder, not shown: large carriers)
chain: FNVLMVHKRSHTGERPLQCEICGFTCRQKGNLLRHIKLHTGEKPFKCHLCNYACQRRDAL
notes: also called MBP-degron
B2: MBP-SD40 (minimal evolved degron SD40 fused to maltose binding protein) (designed binder, not shown: large carriers)
chain: LLLFCPICGFTCRQKGNLLRHINLHTGEKLFKYHLY
modifications: cysteine pairing not given here; also: fused to maltose binding protein, limits and linker not given here
notes: Expressed and purified from E. coli, immobilized for BLI; also called MBP-degron

Legend:
[1] = target: T1, DDB1·CRBN precomplexed with pomalidomide (human, UniProt Q96SW2 1-442; Q16531 1-1140); experiment: BLI, immobilized MBP-degron, DDB1·CRBN precomplexed with pomalidomide
T1 construct: also called CRBN·pomalidomide

[2] = target: T1, DDB1·CRBN precomplexed with pomalidomide; experiment: bio-layer interferometry, immobilized MBP-degron, DDB1·CRBN precomplexed with pomalidomide
[3] = target: T2, DDB1·CRBN precomplexed with PT-179 (human, UniProt Q96SW2 1-442; Q16531 1-1140); experiment: BLI, immobilized MBP-degron; ratio of the KD values
[4] = target: T2, DDB1·CRBN precomplexed with PT-179; experiment: bio-layer interferometry, immobilized MBP-degron, DDB1·CRBN precomplexed with PT-179
[5] = target: T2, DDB1·CRBN precomplexed with PT-179; experiment: BLI, immobilized MBP-degron, DDB1·CRBN precomplexed with PT-179

T2 sequence (Q96SW2 whole entry, chain 1 of 2): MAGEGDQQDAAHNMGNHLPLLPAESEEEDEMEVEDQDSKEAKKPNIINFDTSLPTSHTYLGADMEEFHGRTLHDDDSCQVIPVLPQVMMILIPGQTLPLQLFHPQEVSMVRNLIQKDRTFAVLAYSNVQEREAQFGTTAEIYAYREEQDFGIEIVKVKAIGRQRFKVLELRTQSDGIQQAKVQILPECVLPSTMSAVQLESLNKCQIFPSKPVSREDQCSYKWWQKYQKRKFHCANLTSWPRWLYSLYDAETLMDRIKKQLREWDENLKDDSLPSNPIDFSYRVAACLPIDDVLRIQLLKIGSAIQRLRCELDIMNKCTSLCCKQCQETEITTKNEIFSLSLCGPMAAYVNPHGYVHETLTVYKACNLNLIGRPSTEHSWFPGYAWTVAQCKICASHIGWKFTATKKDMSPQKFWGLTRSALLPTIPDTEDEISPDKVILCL
T2 sequence (Q16531 whole entry, chain 2 of 2): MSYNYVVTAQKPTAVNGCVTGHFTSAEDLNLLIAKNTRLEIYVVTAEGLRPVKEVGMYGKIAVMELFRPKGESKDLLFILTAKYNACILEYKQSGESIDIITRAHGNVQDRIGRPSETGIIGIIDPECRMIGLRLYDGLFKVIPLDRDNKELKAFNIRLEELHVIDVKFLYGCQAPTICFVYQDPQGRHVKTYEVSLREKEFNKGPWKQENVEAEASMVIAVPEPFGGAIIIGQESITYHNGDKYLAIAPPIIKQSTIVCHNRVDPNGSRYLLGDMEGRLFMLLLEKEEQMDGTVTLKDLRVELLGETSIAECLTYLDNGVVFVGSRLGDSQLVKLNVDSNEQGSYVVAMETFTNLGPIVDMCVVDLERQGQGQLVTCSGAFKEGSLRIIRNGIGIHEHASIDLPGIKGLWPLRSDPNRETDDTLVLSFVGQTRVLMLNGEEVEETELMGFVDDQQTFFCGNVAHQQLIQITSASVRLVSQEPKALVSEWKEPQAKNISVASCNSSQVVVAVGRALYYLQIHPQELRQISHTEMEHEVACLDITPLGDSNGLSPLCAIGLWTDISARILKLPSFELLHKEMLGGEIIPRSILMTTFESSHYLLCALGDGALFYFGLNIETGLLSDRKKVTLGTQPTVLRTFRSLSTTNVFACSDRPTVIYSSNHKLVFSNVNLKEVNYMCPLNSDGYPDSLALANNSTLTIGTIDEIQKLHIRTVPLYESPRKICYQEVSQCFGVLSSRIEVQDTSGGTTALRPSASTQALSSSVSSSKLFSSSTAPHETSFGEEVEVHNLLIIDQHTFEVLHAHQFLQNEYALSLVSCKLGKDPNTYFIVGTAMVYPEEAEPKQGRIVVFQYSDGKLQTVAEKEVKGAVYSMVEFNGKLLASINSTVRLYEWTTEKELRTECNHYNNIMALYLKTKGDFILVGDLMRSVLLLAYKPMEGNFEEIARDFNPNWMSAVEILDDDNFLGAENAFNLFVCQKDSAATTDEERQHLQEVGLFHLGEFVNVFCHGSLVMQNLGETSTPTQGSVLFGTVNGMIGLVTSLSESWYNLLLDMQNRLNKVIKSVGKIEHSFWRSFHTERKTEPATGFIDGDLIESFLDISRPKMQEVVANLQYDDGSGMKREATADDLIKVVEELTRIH
T1 sequence (Q96SW2 whole entry, chain 1 of 2): as the sequence (Q96SW2 whole entry, chain 1 of 2) above
T1 sequence (Q16531 whole entry, chain 2 of 2): as the sequence (Q16531 whole entry, chain 2 of 2) above

Binder	Kd [1] [nM]	koff [2] [s⁻¹]	kon [2] [M⁻¹ s⁻¹]	fold preference for CRBN precomplexed with PT-179 over CRBN precomplexed with pomalidomide [3] [fold]	koff [4] [s⁻¹]	kon [4] [M⁻¹ s⁻¹]	Kd [5] [nM]
B1	217	0.0509	235000	–	–	–	–
B2	295	0.0161	54600	2.4	0.00528	42900	123

From patent publication US20250109177A1 (BROAD INSTITUTE, published 2025)
